According to paper PMC9670692:

Substrate: NC(=O)C[C@H](N)C(=O)O
Experiment: purified protein
Conditions: PBS pH 7.2, 37 °C, 1-200 mM asparagine

B1: PtAsp2like1 (Picrophilus oshimae DSM 9789) (protein)
chain: MNVIMLHGGAGSTGVEQKLMEYAVKSKSGSALDSVCNAVVLMENDPCFNAGTGSCMRLDGSIQMDAAVMTSKGFGSVMAIENVKNPVLVARAVMERSPHLIMAGDGAEKFAHLLGFEKYDPSTERAAKRRENDISMILSRKIDSYNKMMETVDISKFVDTVGAVARVNGEFAAAVSTGGAPPMLRGRVGDSPVPGAGIFCGENGAVVATGVGEEIIKNMLCISIYNEIGRESLSKIVMKNISRFRYHAGVIAVSNEEYFAYSNTDMSYAALEF
Km: 11.69 mM
kcat: 0.056 s⁻¹
